Data reported in patent US20040175816.

Target: T1, OkrAI restriction endonuclease (Oceanospirillum kriegii) (UniProt E2JKI3)
T1 sequence: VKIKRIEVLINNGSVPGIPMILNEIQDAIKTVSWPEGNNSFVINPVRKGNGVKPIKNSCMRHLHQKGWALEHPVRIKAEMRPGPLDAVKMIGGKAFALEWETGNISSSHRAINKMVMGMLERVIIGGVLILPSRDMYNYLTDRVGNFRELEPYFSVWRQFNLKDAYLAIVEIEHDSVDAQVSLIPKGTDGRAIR
Assay: cleavage_in_vitro
Conditions: approximate yield, assayed in cell extract; isoschizomer of BamHI

## lambda phage DNA
  activity (units per gram wet cells): 5e+06
